Experiments:
Assay in all cases: peptide or protein array; peptides synthesized on a microarray, incubated with recombinant CSN, probed with anti-CSN3 and HRP-conjugated secondary antibody; spot intensity normalized to C-CSNAP (A1), averaged from six arrays
[1] = target: C-CSNAP peptide with a D-amino acid at Asp54 (peptide array)
[2] = target: C-CSNAP peptide with a D-amino acid at Asp55 (peptide array)
[3] = target: C-CSNAP peptide with a D-amino acid at Phe51 (peptide array)
[4] = target: C-CSNAP peptide with a D-amino acid at Asp52 (peptide array)
[5] = target: C-CSNAP peptide with a D-amino acid at Asp53 (peptide array)
[6] = target: C-CSNAP peptide with a D-amino acid at Leu50 (peptide array)

Measured: increase of the array signal over the original 16AA C-CSNAP peptide

recombinant COP9 signalosome complex (CSN) (from UniProt Q13098 1-491; Q9UNS2 1-423; Q92905 1-334; Q99627 2-209; Q8WXC6 1-57)
> 20%: all assays above
